Results: article PMC12416549 (2024)

T1: TNFR1 (Homo sapiens, UniProt P19438)
T1 chain: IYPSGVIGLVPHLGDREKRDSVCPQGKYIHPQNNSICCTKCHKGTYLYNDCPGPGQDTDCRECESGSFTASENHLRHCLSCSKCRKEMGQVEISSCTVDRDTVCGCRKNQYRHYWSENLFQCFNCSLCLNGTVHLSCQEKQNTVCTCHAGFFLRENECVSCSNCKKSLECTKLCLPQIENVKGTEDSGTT


Biological target: T1, TNFR1
Test: yeast display SC50

Row | Binder | apparent Kd (screen) [nM]
1 | S59C (designed binder) SMEEEVEKAAKEYEKKKKEAIEKHLEKLKAKDKEAAERFLKELEEAAKEYAKDEAKTMCEEEAKRRAKKYKEKVLLSELSEEEQKEIKEAEEKLVRTILKYVEEAAK | 2.73
2 | K107W (designed binder) SMEEEVEKAAKEYEKKKKEAIEKHLEKLKAKDKEAAERFLKELEEAAKEYAKDEAKTMSEEEAKRRAKKYKEKVLLSELSEEEQKEIKEAEEKLVRTILKYVEEAAW | 5.84
3 | T57C (designed binder) SMEEEVEKAAKEYEKKKKEAIEKHLEKLKAKDKEAAERFLKELEEAAKEYAKDEAKCMSEEEAKRRAKKYKEKVLLSELSEEEQKEIKEAEEKLVRTILKYVEEAAK | 2.73
4 | K29W (designed binder) SMEEEVEKAAKEYEKKKKEAIEKHLEKLWAKDKEAAERFLKELEEAAKEYAKDEAKTMSEEEAKRRAKKYKEKVLLSELSEEEQKEIKEAEEKLVRTILKYVEEAAK | 0.869
5 | E89Q (designed binder) SMEEEVEKAAKEYEKKKKEAIEKHLEKLKAKDKEAAERFLKELEEAAKEYAKDEAKTMSEEEAKRRAKKYKEKVLLSELSEEEQKEIKQAEEKLVRTILKYVEEAAK | 1.05
6 | L28D (designed binder) SMEEEVEKAAKEYEKKKKEAIEKHLEKDKAKDKEAAERFLKELEEAAKEYAKDEAKTMSEEEAKRRAKKYKEKVLLSELSEEEQKEIKEAEEKLVRTILKYVEEAAK | 0.956
7 | V6W (designed binder) SMEEEWEKAAKEYEKKKKEAIEKHLEKLKAKDKEAAERFLKELEEAAKEYAKDEAKTMSEEEAKRRAKKYKEKVLLSELSEEEQKEIKEAEEKLVRTILKYVEEAAK | 0.49
8 | E44H (designed binder) SMEEEVEKAAKEYEKKKKEAIEKHLEKLKAKDKEAAERFLKELHEAAKEYAKDEAKTMSEEEAKRRAKKYKEKVLLSELSEEEQKEIKEAEEKLVRTILKYVEEAAK | 3
9 | E42M (designed binder) SMEEEVEKAAKEYEKKKKEAIEKHLEKLKAKDKEAAERFLKMLEEAAKEYAKDEAKTMSEEEAKRRAKKYKEKVLLSELSEEEQKEIKEAEEKLVRTILKYVEEAAK | 12.5
10 | Y70R (designed binder) SMEEEVEKAAKEYEKKKKEAIEKHLEKLKAKDKEAAERFLKELEEAAKEYAKDEAKTMSEEEAKRRAKKRKEKVLLSELSEEEQKEIKEAEEKLVRTILKYVEEAAK | 5.31
11 | E49Q (designed binder) SMEEEVEKAAKEYEKKKKEAIEKHLEKLKAKDKEAAERFLKELEEAAKQYAKDEAKTMSEEEAKRRAKKYKEKVLLSELSEEEQKEIKEAEEKLVRTILKYVEEAAK | 3
12 | L94A (designed binder) SMEEEVEKAAKEYEKKKKEAIEKHLEKLKAKDKEAAERFLKELEEAAKEYAKDEAKTMSEEEAKRRAKKYKEKVLLSELSEEEQKEIKEAEEKAVRTILKYVEEAAK | 0.49
13 | L25R (designed binder) SMEEEVEKAAKEYEKKKKEAIEKHREKLKAKDKEAAERFLKELEEAAKEYAKDEAKTMSEEEAKRRAKKYKEKVLLSELSEEEQKEIKEAEEKLVRTILKYVEEAAK | 1.69
14 | E92M (designed binder) SMEEEVEKAAKEYEKKKKEAIEKHLEKLKAKDKEAAERFLKELEEAAKEYAKDEAKTMSEEEAKRRAKKYKEKVLLSELSEEEQKEIKEAEMKLVRTILKYVEEAAK | 12.5
15 | K27C (designed binder) SMEEEVEKAAKEYEKKKKEAIEKHLECLKAKDKEAAERFLKELEEAAKEYAKDEAKTMSEEEAKRRAKKYKEKVLLSELSEEEQKEIKEAEEKLVRTILKYVEEAAK | 0.593
16 | E12P (designed binder) SMEEEVEKAAKPYEKKKKEAIEKHLEKLKAKDKEAAERFLKELEEAAKEYAKDEAKTMSEEEAKRRAKKYKEKVLLSELSEEEQKEIKEAEEKLVRTILKYVEEAAK | 9.41
17 | K33D (designed binder) SMEEEVEKAAKEYEKKKKEAIEKHLEKLKAKDDEAAERFLKELEEAAKEYAKDEAKTMSEEEAKRRAKKYKEKVLLSELSEEEQKEIKEAEEKLVRTILKYVEEAAK | 1.05

Further lines, results first:

Row | apparent Kd (screen) [nM] | Binder
18 | 4.83 | L99H (designed binder) SMEEEVEKAAKEYEKKKKEAIEKHLEKLKAKDKEAAERFLKELEEAAKEYAKDEAKTMSEEEAKRRAKKYKEKVLLSELSEEEQKEIKEAEEKLVRTIHKYVEEAAK
19 | 0.446 | E19D (designed binder) SMEEEVEKAAKEYEKKKKDAIEKHLEKLKAKDKEAAERFLKELEEAAKEYAKDEAKTMSEEEAKRRAKKYKEKVLLSELSEEEQKEIKEAEEKLVRTILKYVEEAAK
20 | 0.446 | L94V (designed binder) SMEEEVEKAAKEYEKKKKEAIEKHLEKLKAKDKEAAERFLKELEEAAKEYAKDEAKTMSEEEAKRRAKKYKEKVLLSELSEEEQKEIKEAEEKVVRTILKYVEEAAK
21 | 10.4 | A63F (designed binder) SMEEEVEKAAKEYEKKKKEAIEKHLEKLKAKDKEAAERFLKELEEAAKEYAKDEAKTMSEEEFKRRAKKYKEKVLLSELSEEEQKEIKEAEEKLVRTILKYVEEAAK
22 | 22.2 | R66I (designed binder) SMEEEVEKAAKEYEKKKKEAIEKHLEKLKAKDKEAAERFLKELEEAAKEYAKDEAKTMSEEEAKRIAKKYKEKVLLSELSEEEQKEIKEAEEKLVRTILKYVEEAAK
23 | 2.73 | A105Y (designed binder) SMEEEVEKAAKEYEKKKKEAIEKHLEKLKAKDKEAAERFLKELEEAAKEYAKDEAKTMSEEEAKRRAKKYKEKVLLSELSEEEQKEIKEAEEKLVRTILKYVEEYAK
24 | 0.446 | T57Q (designed binder) SMEEEVEKAAKEYEKKKKEAIEKHLEKLKAKDKEAAERFLKELEEAAKEYAKDEAKQMSEEEAKRRAKKYKEKVLLSELSEEEQKEIKEAEEKLVRTILKYVEEAAK
25 | 0.79 | K18W (designed binder) SMEEEVEKAAKEYEKKKWEAIEKHLEKLKAKDKEAAERFLKELEEAAKEYAKDEAKTMSEEEAKRRAKKYKEKVLLSELSEEEQKEIKEAEEKLVRTILKYVEEAAK
26 | 0.446 | K48S (designed binder) SMEEEVEKAAKEYEKKKKEAIEKHLEKLKAKDKEAAERFLKELEEAASEYAKDEAKTMSEEEAKRRAKKYKEKVLLSELSEEEQKEIKEAEEKLVRTILKYVEEAAK
